The values that follow come from article PMC6529005, “FMRP - G-quadruplex mRNA - miR-125a interactions: Implications for miR-125a mediated translation regulation of PSD-95 mRNA”.

In data set [1] the target is T1, FMRP ISO1 (UniProt Q06787 1-632). Nature of the data set: EMSA; 200 nM RNA, up to 1:2; Fluorescence: 10 mM cacodylic acid pH 6.5, 150 mM KCl, 1 uM BSA, 200 nM RNA; EMSA: 0.5x TBE native gels at 4 C (5 mM KCl for PSD-95 RNAs), incubation at room te.
Data set [2] has as its target T1, FMRP ISO1. Nature of the data set: EMSA; 200 nM RNA, up to 1:6 RNA:protein; Fluorescence: 10 mM cacodylic acid pH 6.5, 150 mM KCl, 1 uM BSA, 200 nM RNA; EMSA: 0.5x TBE native gels at 4 C (5 mM KCl for PSD-95 RNAs), incubation at room te. (Mobility shift assays separate free from complexed probe on a gel.)
Data set [3] addresses T1, FMRP ISO1. Nature of the data set: fluorescence titration (2AP); 150 mM KCl, 1 uM BSA; Fluorescence: 10 mM cacodylic acid pH 6.5, 150 mM KCl, 1 uM BSA, 200 nM RNA; EMSA: 0.5x TBE native gels at 4 C (5 mM KCl for PSD-95 RNAs), incubation at room te.

For the molecule UAGGUAGUUUCAUGUUGUUGGG (ssRNA) [miR-196a-1], the binding result in data set [1] is reported as “no binding”.

Take UCCCUGAGACCCUUUAACCUGUGA (ssRNA) [miR-125a]: the binding result in data set [2] is on record as “no binding”. For the molecule GGGAAAAGGGAGGGAUGGG (structured_RNA, A11 replaced by 2-aminopurine) [PSD-95 Q11234 11-2AP], binding in data set [3] was put at a Kd of 128 nM. In the case of GGGAGGGAGGGUGGG (structured_RNA, A4 replaced by 2-aminopurine) [PSD-95 Q2 4-2AP], binding in data set [3] was put at a Kd of 195 nM.
